This is an account of results in patent CN105968202A (UNIV NANCHANG, dated 2016).

The target in assay [1] is T1, PSMA on LNCaP cells (前列腺癌细胞LNCaP表达PSMA) (UniProt Q04609 1-750, limits assumed).
T1 construct: whole, on cells; Endogenous PSMA on fixed LNCaP cells; PSMA-negative MKN45 gastric cancer cells served as the negative cell line; also called 前列腺特异性膜抗原
In words: cell ELISA (HRP-anti-M13, OD450) and immunofluorescence (anti-M13 + FITC secondary) on fixed LNCaP cells versus PSMA-negative MKN45 cells.

The target of assay [2] is T2, PSMA胞外区蛋白 (重组表达的前列腺特异性膜抗原膜外区) (UniProt Q04609 44-750, limits assumed).
T2 construct: extracellular domain; Expressed from vector pRAG2a in HEK-293 cells, purified with HisTrap FF Crude and detected with anti-His antibody, so it carries a His tag; also called PSMA蛋白; PSMA抗原
The assay can be described thus: indirect phage-ELISA, PSMA extracellular region coated at 5 μg/mL, HRP-anti-M13 detection (ELISA-positive clone).

T1 sequence (Q04609 whole entry): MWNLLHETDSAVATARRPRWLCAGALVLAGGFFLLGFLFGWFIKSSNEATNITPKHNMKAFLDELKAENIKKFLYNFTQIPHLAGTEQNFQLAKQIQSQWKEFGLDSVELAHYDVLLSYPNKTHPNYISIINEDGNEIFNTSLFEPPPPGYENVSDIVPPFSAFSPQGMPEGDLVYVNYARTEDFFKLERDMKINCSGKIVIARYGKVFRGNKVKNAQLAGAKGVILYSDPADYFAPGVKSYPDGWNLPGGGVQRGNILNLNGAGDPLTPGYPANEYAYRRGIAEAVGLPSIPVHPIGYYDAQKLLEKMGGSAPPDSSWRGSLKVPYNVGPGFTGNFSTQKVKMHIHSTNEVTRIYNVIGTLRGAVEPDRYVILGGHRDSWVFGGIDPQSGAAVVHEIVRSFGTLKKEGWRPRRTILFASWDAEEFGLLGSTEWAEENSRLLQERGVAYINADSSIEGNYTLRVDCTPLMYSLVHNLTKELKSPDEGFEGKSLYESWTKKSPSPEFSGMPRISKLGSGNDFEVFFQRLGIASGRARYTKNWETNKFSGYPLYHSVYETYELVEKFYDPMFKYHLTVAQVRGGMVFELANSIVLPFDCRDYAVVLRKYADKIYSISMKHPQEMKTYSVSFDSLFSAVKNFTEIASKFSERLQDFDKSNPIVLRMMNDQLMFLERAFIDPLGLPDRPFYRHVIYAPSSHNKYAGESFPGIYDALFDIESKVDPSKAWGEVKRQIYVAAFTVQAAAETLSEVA
T2 sequence (Q04609 44-750 limits assumed): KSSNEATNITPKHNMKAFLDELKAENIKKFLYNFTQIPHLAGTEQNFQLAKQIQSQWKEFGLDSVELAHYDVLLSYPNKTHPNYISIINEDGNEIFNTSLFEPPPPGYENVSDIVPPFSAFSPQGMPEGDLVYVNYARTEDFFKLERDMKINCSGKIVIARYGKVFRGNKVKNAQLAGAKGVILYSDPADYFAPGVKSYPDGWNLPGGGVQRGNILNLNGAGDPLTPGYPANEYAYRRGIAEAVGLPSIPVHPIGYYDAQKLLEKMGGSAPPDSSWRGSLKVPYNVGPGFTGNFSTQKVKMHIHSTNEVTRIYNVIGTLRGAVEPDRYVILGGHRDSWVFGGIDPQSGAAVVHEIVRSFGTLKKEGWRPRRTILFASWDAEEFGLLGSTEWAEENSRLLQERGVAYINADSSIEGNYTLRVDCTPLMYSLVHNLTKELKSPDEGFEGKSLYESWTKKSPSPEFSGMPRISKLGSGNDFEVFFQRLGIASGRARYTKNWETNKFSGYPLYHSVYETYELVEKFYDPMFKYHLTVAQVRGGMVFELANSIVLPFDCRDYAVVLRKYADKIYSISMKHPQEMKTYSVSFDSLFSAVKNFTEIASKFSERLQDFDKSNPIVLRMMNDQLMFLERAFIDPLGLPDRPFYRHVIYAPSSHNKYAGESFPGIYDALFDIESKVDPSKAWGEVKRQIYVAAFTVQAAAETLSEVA

B1: 抗前列腺特异性膜抗原单域重链抗体噬菌体阳性克隆 (VHH)
VHH: QVQLVESGGGLVQAGGSLRLSCVVSGRAFRRYAMGWFRQAPGKEREFVAAIRRSRSTYYADSVKGRFTISRDNAKKTVYLQMNSLKPEDTAVYYCAADPVDSVYNTLRAWGYWGQGTQVTVSS
notes: The phage coat protein fusion partner and any linker are not described; also called 针对前列腺特异性膜抗原的单域重链抗体阳性克隆; 展示本发明所述纳米抗体的噬菌体克隆
Consider B1, for which the binding result in assay [1] and in assay [2] was “binds” in each case.
